{"source": "paper PMC11464722", "about": "(Nature Communications, 2024)", "key": {"[1]": {"biological_target": "SNAP-tagged murine µOR on HEK293 cells (murine, UniProt P42866 1-398)", "sequence (P42866 whole entry)": "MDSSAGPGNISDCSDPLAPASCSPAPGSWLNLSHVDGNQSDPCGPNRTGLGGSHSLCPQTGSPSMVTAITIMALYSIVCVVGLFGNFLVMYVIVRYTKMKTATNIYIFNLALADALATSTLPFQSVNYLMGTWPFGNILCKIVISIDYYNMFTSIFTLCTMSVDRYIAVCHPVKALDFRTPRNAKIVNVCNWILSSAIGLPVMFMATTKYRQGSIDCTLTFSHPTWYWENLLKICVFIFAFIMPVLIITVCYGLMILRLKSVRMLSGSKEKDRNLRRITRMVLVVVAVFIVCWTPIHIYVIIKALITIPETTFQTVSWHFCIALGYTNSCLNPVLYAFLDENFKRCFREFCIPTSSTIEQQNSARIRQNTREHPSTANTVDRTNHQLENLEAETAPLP", "test": "AlphaScreen or HTRF"}, "[2]": {"biological_target": "SNAP-tagged murine µOR on HEK293 cells (murine, UniProt P42866, SNAP-Lumi4-Tb (terbium cryptate) on the SNAP tag)", "sequence (P42866 whole entry)": "as above", "test": "AlphaScreen or HTRF"}, "[3]": {"biological_target": "human μ-opioid receptor, ssf-tagged, on HEK293 cells (Homo sapiens (Human)., UniProt P35372)", "sequence (P35372 whole entry)": "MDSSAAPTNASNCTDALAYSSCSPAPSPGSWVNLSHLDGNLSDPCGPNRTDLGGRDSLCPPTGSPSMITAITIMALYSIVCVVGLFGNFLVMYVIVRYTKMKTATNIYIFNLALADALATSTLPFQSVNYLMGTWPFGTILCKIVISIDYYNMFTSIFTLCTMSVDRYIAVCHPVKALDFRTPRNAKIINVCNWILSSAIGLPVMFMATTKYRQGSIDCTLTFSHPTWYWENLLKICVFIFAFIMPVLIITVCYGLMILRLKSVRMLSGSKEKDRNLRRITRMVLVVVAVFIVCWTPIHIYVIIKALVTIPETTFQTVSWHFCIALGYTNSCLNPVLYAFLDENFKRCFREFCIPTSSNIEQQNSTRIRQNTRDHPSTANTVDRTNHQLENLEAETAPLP", "test": "immunostaining of cells or tissue"}, "[4]": {"biological_target": "murine κ-opioid receptor, ssf-tagged, on HEK293 cells (Mus musculus (Mouse)., UniProt P33534)", "sequence (P33534 whole entry)": "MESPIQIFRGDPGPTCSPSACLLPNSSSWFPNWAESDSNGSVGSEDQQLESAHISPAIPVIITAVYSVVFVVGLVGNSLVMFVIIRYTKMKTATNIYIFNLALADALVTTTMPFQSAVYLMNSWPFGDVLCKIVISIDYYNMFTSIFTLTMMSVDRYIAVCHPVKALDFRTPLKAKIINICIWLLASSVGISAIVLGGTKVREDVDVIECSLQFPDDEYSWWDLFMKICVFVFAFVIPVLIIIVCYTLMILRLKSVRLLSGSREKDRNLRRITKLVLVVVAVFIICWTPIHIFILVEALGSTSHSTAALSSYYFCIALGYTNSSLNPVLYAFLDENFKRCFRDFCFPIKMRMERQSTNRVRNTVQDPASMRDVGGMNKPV", "test": "flow cytometry on cells"}, "[5]": {"biological_target": "murine nociceptin opioid receptor, ssf-tagged, on HEK293 cells (Mus musculus (Mouse)., UniProt P35377)", "sequence (P35377 whole entry)": "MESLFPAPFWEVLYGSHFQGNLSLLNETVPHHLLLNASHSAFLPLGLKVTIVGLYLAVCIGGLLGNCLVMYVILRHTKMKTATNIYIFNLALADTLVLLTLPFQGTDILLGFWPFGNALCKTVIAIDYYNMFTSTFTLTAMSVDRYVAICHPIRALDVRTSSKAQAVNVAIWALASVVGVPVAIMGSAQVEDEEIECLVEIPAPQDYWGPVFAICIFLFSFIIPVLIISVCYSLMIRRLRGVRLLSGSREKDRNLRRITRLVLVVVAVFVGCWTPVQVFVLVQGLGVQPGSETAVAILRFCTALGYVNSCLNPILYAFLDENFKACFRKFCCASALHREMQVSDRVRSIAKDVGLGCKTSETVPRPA", "test": "flow cytometry on cells"}}, "data": [{"binder": "KYYSGSYFYKSEYD", "note": "[linear peptide 6 (NbE CDR3 residues 100-113, 14 residues)]", "values": [{"measurement": "Ki", "setting": "[1]", "result": 3.1, "unit": "µM"}]}, {"binder": "Ac-YYSGSYFYKSEY-NH2", "note": "[linear peptide 5 (NbE CDR3, 12 residues)]", "values": [{"measurement": "Ki", "setting": "[1]", "result": 1.3, "unit": "µM"}]}, {"binder": "NbE (NbE-6xHis, unlabeled) (VHH) VHH: QVQLVESGGGLVQAGGSLRLSCAASGSISSISTMGWYRQAPGNERELVAAITSGGSTNYADSVKGRFTISRDNAKNTVYLQMNSLKPEDTAVYYCNFKYYSGSYFYKSEYDYWGQGTQVTVSS", "values": [{"measurement": "Ki", "setting": "[2]", "result": 0.018, "unit": "µM"}]}, {"binder": "HA-tagged NbE (VHH) VHH: QVQLVESGGGLVQAGGSLRLSCAASGSISSISTMGWYRQAPGNERELVAAITSGGSTNYADSVKGRFTISRDNAKNTVYLQMNSLKPEDTAVYYCNFKYYSGSYFYKSEYDYWGQGTQVTVSS", "values": [{"measurement": "binding result", "setting": "[3]", "result": "binds"}]}, {"binder": "NbE conjugated with Alexa Fluor 488 (VHH) VHH: QVQLVESGGGLVQAGGSLRLSCAASGSISSISTMGWYRQAPGNERELVAAITSGGSTNYADSVKGRFTISRDNAKNTVYLQMNSLKPEDTAVYYCNFKYYSGSYFYKSEYDYWGQGTQVTVSS", "values": [{"measurement": "binding result", "setting": "[4]", "result": "no binding (tested: 10 μM)"}, {"measurement": "binding result", "setting": "[5]", "result": "no binding (tested: 10 μM)"}]}]}
